Data on 2 substances can be found in PMC5961032.

Test [1] has as its target PP1α (7–330) (UniProt P62136).
The target in test [2] is native catalytic subunit of PP1 from rabbit skeletal muscle (PP1^N) (rabbit) (UniProt P62139).
UniProt P62139, sequence (P62139 whole entry): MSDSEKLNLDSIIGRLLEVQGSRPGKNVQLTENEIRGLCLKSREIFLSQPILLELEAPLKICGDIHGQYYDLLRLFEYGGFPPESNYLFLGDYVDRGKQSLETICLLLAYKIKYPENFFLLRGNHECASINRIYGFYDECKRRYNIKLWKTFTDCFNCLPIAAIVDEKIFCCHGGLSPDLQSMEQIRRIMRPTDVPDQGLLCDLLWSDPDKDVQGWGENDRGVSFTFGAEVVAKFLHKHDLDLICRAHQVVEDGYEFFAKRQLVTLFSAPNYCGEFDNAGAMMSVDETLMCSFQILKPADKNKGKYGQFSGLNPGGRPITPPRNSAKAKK

UniProt P62136, sequence (P62136 7-330): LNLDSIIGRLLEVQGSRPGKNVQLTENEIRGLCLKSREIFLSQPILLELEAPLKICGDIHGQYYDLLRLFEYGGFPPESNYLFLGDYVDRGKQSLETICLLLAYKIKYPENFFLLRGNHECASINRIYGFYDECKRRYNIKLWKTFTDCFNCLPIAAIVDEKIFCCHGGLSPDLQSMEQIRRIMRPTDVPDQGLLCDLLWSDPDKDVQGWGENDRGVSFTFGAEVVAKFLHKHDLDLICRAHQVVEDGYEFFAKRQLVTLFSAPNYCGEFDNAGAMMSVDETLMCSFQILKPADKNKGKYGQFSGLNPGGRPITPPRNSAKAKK
PPP1R15A^325–636-MBP, sequence (O75807 325-636): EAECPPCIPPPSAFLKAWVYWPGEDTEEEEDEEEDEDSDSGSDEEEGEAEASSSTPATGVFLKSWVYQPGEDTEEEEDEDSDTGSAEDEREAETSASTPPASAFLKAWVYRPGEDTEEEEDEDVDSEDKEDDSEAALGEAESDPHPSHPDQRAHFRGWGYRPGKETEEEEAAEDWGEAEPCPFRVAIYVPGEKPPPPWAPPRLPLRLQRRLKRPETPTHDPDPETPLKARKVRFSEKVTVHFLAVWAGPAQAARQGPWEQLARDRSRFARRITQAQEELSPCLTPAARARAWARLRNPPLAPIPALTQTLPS
MBP-PPP1R15A^325–636, sequence (O75807 325-636): as above

As to “MBP-PPP1R15A^325–636 (from UniProt O75807 325-636) (domain or fragment)”, in test [1], the EC50 of the stimulation of eIF2α^P (2 μM) dephosphorylation by PP1α (24 nM) with G-actin (400 nM), MBP-PPP1R15A^325–636 0–100 nM, 20 min at 30 °C was 6 nM.
“PPP1R15A^325–636-MBP (from UniProt O75807 325-636) (domain or fragment)”: the EC50 of the stimulation of eIF2α^P (2 μM) dephosphorylation by PP1^N (20 nM) with G-actin (400 nM), PPP1R15A^325–636-MBP 0–100 nM, 30 min at 30 °C in test [2] turned out to be 58 nM.
